Measurements: patent EP4671273A1 (Anaveon AG, dated 2025)
Like-named read-outs stand apart in the source and are kept apart here.

What was measured:
[1] = molecular target: T1, human IL-21 receptor (IL-21R) on cells (human, UniProt Q9HBE5 20-538; P31785 23-369); experiment: cell-based or functional assay
[2] = molecular target: T1, human IL-21 receptor (IL-21R) on cells; experiment: cell-based or functional assay; remark: listed apart in the source

T1 sequence (Q9HBE5 20-538, chain 1 of 2): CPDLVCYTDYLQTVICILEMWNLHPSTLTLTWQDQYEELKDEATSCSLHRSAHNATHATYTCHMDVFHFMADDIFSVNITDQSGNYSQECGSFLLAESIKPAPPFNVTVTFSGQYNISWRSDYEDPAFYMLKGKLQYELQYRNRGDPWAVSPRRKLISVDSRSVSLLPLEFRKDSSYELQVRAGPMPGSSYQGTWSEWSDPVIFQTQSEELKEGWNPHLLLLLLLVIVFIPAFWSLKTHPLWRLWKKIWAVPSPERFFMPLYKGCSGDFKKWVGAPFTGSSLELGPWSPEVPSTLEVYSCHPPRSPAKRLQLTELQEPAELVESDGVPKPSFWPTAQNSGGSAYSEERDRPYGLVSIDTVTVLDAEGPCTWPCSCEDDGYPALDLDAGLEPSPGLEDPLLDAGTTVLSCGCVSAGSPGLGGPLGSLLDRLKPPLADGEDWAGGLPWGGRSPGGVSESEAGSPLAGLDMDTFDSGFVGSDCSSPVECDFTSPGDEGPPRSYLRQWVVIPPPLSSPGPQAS
T1 sequence (P31785 23-369, chain 2 of 2): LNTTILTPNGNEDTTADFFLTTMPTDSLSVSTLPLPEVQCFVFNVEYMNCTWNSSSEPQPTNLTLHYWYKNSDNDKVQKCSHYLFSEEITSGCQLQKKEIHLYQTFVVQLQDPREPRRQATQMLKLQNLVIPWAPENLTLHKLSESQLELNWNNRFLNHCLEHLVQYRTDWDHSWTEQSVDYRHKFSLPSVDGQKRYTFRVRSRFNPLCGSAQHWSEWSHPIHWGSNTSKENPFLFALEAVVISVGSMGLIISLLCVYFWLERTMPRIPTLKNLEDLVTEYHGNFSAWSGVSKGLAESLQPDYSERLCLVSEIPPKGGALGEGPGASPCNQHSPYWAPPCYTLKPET

Row | Binder | EC50B, pSTAT3+ Jurkat PD-1 cells, PD-1 blocked [1] | EC50NB, pSTAT3+ Jurkat PD-1 cells [1] | EC50B, pSTAT3+ Jurkat PD-1 cells, PD-1 blocked [2] | EC50NB, pSTAT3+ Jurkat PD-1 cells [2]
1 | UNY098 (bispecific antibody, human IgG1, kappa, lambda, L234A L235A) heavy 1: EVQLLESGGGLVQPGGSLRLSCAASGFTFSINAMTWVRQAPGKGLEWVSTISGSGFSTYYADSLKGRFTISRDNSKNTLYLQMNSLRAEDTAVYYCAKEVYGDYWGQGTLVTVSSASTKGPSVFPLAPSSKSTSGGTAALGCLVKDYFPEPVTVSWNSGALTSGVHTFPAVLQSSGLYSLSSVVTVPSSSLGTQTYICNVNHKPSNTKVDKRVEPKSCDKTHTCPPCPAPEAAGGPSVFLFPPKPKDTLMISRTPEVTCVVVDVSHEDPEVKFNWYVDGVEVHNAKTKPREEQYNSTYRVVSVLTVLHQDWLNGKEYKCKVSNKALAAPIEKTISKAKGQPREPQVCTLPPSREEMTKNQVSLSCAVKGFYPSDIAVEWESNGQPENNYKTTPPVLDSDGSFFLVSKLTVDKSRWQQGNVFSCSVMHEALHNHYTQKSLSLSPGK light 1: not shown heavy 2: QVQLQESGPGLVKPSETLSLTCTVSGGSISSDYWGWIRQPPGKGLEWIGYISYRGSTNYNPSLKSRVTISVDTSRNQFSLKLSSVTAADTAVYYCARSAGVTDFDAWGQGTLVTVSSASTKGPSVFPLAPSSKSTSGGTAALGCLVKDYFPEPVTVSWNSGALTSGVHTFPAVLQSSGLYSLSSVVTVPSSSLGTQTYICNVNHKPSNTKVDKRVEPKSCDKTHTCPPCPAPEAAGGPSVFLFPPKPKDTLMISRTPEVTCVVVDVSHEDPEVKFNWYVDGVEVHNAKTKPREEQYNSTYRVVSVLTVLHQDWLNGKEYKCKVSNKALAAPIEKTISKAKGQPREPQVYTLPPCREEMTKNQVSLWCLVKGFYPSDIAVEWESNGQPENNYKTTPPVLDSDGSFFLYSKLTVDKSRWQQGNVFSCSVMHEALHNHYTQKSLSLSPGK light 2: not shown | 0.333 nM | 7 pM |  | 
2 | GOP758 (bispecific antibody, human IgG1, kappa, lambda, L234A L235A) heavy 1: EVQLLESGGGLVQPGGSLRLSCAASGFTFSINAMTWVRQAPGKGLEWVSTISGSGFSTYYADSLKGRFTISRDNSKNTLYLQMNSLRAEDTAVYYCAKEVYGDYWGQGTLVTVSSASTKGPSVFPLAPSSKSTSGGTAALGCLVKDYFPEPVTVSWNSGALTSGVHTFPAVLQSSGLYSLSSVVTVPSSSLGTQTYICNVNHKPSNTKVDKRVEPKSCDKTHTCPPCPAPEAAGGPSVFLFPPKPKDTLMISRTPEVTCVVVDVSHEDPEVKFNWYVDGVEVHNAKTKPREEQYNSTYRVVSVLTVLHQDWLNGKEYKCKVSNKALAAPIEKTISKAKGQPREPQVCTLPPSREEMTKNQVSLSCAVKGFYPSDIAVEWESNGQPENNYKTTPPVLDSDGSFFLVSKLTVDKSRWQQGNVFSCSVMHEALHNHYTQKSLSLSPGK light 1: not shown heavy 2: QVQLQESGPGLVKPSETLSLTCTVSGGSISSDFWGWIRQPPGKGLEWIGYISSRGSTNYNPSLKRRVTISVDTSRNQFSLKLSSVTAADTAVYYCARSAGVTDFDFWGQGTLVTVSSASTKGPSVFPLAPSSKSTSGGTAALGCLVKDYFPEPVTVSWNSGALTSGVHTFPAVLQSSGLYSLSSVVTVPSSSLGTQTYICNVNHKPSNTKVDKRVEPKSCDKTHTCPPCPAPEAAGGPSVFLFPPKPKDTLMISRTPEVTCVVVDVSHEDPEVKFNWYVDGVEVHNAKTKPREEQYNSTYRVVSVLTVLHQDWLNGKEYKCKVSNKALAAPIEKTISKAKGQPREPQVYTLPPCREEMTKNQVSLWCLVKGFYPSDIAVEWESNGQPENNYKTTPPVLDSDGSFFLYSKLTVDKSRWQQGNVFSCSVMHEALHNHYTQKSLSLSPGK light 2: DIQMTQSPSSVSASVGDRVTITCRASQGISSWLAWYQHKPGKAPKLLIYVASSLQGGGGSQGQDRHMIRMRQLIDIVDQLKNYVNDLVPEFLPAPEDVETNCEWSAFSCFQKAQLKSANTGNNERIINVSIKKLKRKPPSTNAGRRQKHRLTCPSCDSYEKKPPKEFLERFKSLLQKMIHQHLSSRTHGSEDSGGGGSSGVPSRFSGSGSGTDFTLTISSLQPEDFATYYCQQANSFPLTFGGGTKVEIKRTVAAPSVFIFPPSDEQLKSGTASVVCLLNNFYPREAKVQWKVDNALQSGNSQESVTEQDSKDSTYSLSSTLTLSKADYEKHKVYACEVTHQGLSSPVTKSFNRGEC |  |  | 0.51 nM | 0.227 nM
3 | VCG677 (bispecific antibody, human IgG1, kappa, lambda, L234A L235A) heavy 1: EVQLLESGGGLVQPGGSLRLSCAASGFTFSINAMTWVRQAPGKGLEWVSTISGSGFSTYYADSLKGRFTISRDNSKNTLYLQMNSLRAEDTAVYYCAKEVYGDYWGQGTLVTVSSASTKGPSVFPLAPSSKSTSGGTAALGCLVKDYFPEPVTVSWNSGALTSGVHTFPAVLQSSGLYSLSSVVTVPSSSLGTQTYICNVNHKPSNTKVDKRVEPKSCDKTHTCPPCPAPEAAGGPSVFLFPPKPKDTLMISRTPEVTCVVVDVSHEDPEVKFNWYVDGVEVHNAKTKPREEQYNSTYRVVSVLTVLHQDWLNGKEYKCKVSNKALAAPIEKTISKAKGQPREPQVCTLPPSREEMTKNQVSLSCAVKGFYPSDIAVEWESNGQPENNYKTTPPVLDSDGSFFLVSKLTVDKSRWQQGNVFSCSVMHEALHNHYTQKSLSLSPGK light 1: not shown heavy 2: QVQLQESGPGLVKPSETLSLTCTVSGGSISSDFWGWIRQPPGKGLEWIGYISSRGSTNYNPSLKRRVTISVDTSRNQFSLKLSSVTAADTAVYYCARSAGVTDFDFWGQGTLVTVSSASTKGPSVFPLAPSSKSTSGGTAALGCLVKDYFPEPVTVSWNSGALTSGVHTFPAVLQSSGLYSLSSVVTVPSSSLGTQTYICNVNHKPSNTKVDKRVEPKSCDKTHTCPPCPAPEAAGGPSVFLFPPKPKDTLMISRTPEVTCVVVDVSHEDPEVKFNWYVDGVEVHNAKTKPREEQYNSTYRVVSVLTVLHQDWLNGKEYKCKVSNKALAAPIEKTISKAKGQPREPQVYTLPPCREEMTKNQVSLWCLVKGFYPSDIAVEWESNGQPENNYKTTPPVLDSDGSFFLYSKLTVDKSRWQQGNVFSCSVMHEALHNHYTQKSLSLSPGK light 2: not shown |  |  | 2.3 nM | 39 pM
4 | ZNP367 (bispecific antibody, human IgG1, kappa, lambda, L234A L235A) heavy 1: EVQLLESGGGLVQPGGSLRLSCAASGFTFSINAMTWVRQAPGKGLEWVSTISGSGFSTYYADSLKGRFTISRDNSKNTLYLQMNSLRAEDTAVYYCAKEVYGDYWGQGTLVTVSSASTKGPSVFPLAPSSKSTSGGTAALGCLVKDYFPEPVTVSWNSGALTSGVHTFPAVLQSSGLYSLSSVVTVPSSSLGTQTYICNVNHKPSNTKVDKRVEPKSCDKTHTCPPCPAPEAAGGPSVFLFPPKPKDTLMISRTPEVTCVVVDVSHEDPEVKFNWYVDGVEVHNAKTKPREEQYNSTYRVVSVLTVLHQDWLNGKEYKCKVSNKALAAPIEKTISKAKGQPREPQVCTLPPSREEMTKNQVSLSCAVKGFYPSDIAVEWESNGQPENNYKTTPPVLDSDGSFFLVSKLTVDKSRWQQGNVFSCSVMHEALHNHYTQKSLSLSPGK light 1: not shown heavy 2: QVQLQESGPGLVKPSETLSLTCTVSGGSISSDFWGWIRQPPGKGLEWIGYISSRGSTNYNPSLKRRVTISVDTSRNQFSLKLSSVTAADTAVYYCARSAGVTDFDFWGQGTLVTVSSASTKGPSVFPLAPSSKSTSGGTAALGCLVKDYFPEPVTVSWNSGALTSGVHTFPAVLQSSGLYSLSSVVTVPSSSLGTQTYICNVNHKPSNTKVDKRVEPKSCDKTHTCPPCPAPEAAGGPSVFLFPPKPKDTLMISRTPEVTCVVVDVSHEDPEVKFNWYVDGVEVHNAKTKPREEQYNSTYRVVSVLTVLHQDWLNGKEYKCKVSNKALAAPIEKTISKAKGQPREPQVYTLPPCREEMTKNQVSLWCLVKGFYPSDIAVEWESNGQPENNYKTTPPVLDSDGSFFLYSKLTVDKSRWQQGNVFSCSVMHEALHNHYTQKSLSLSPGK light 2: not shown |  |  | 0.97 nM | 36 pM
